Assay results: patent US20060140946A1

Molecular target: human lymphotoxin (TNFβ) (human) (UniProt P01374)
Experiment: cell-based or functional assay

Chain of human lymphotoxin (TNFβ) (human) (P01374 35-205 limits assumed): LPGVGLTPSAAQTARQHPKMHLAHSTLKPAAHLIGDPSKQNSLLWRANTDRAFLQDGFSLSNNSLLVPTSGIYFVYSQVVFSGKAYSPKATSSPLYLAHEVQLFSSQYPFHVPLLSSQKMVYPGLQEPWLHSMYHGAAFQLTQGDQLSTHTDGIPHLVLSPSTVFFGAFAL

p75P-sf2 TNF receptor/IgG1 fusion protein (from UniProt P20333 23-204) (Fc fusion)
concentration required to half-inhibit human TNFβ at 2 pM, WEHI 164 cytotoxicity assay: 31 pM
